Reference: patent US11504374B2, “Compositions and methods for the treatment of a beta-catenin-associated disease or disorder” (Dicerna Pharmaceuticals, Inc., priority 2016, dated 2022)

How the values were obtained:
LS411N tumors = assay: Tumor growth inhibition, subcutaneous LS411N colorectal tumors in nude mice; format: in vivo; details: for growth inhibition: single agent, 0.1 mg/kg; for tumor growth inhibition: 2 cycles
Description: (§1) 6-8 week old Hsd:Athymic Nude-Foxn1^nu mice (hereby referred to as nude mice) were injected subcutaneously with LS411N (5×10^6 cells), SW403 (5×10^6 cells), Ls174t (5×10^6 cells) or Hep3B (5×10^6 cells+matrigel) under the right shoulder. Tumor volume was measured twice a week to monitor tumor growth/suppression. Dosing was initiated when the tumors reached 200-250 mm^3. For tumor growth inhibition studies, animals were randomized and assigned to different cohorts and subjected to dosing cycles. BCAT1 or LNP was given intravenously via lateral tail vein at a total volume of 10 ml/kg. Trametinib was given orally at a volume of 10 mi/kg.
(§2) Human cell lines LS411N and SW403, Ls174t and Hep3B were obtained from ATCC (Manassas, Va.) and grown in RPMI/DMEM medium supplemented with 10% FBS. LS411N is a human colorectal cell line harboring mutations in the adenomatous polyposis coli (APC) and BRAF genes. APC is a component of the destruction complex in the Wnt signaling pathway. SW403 is a human colorectal cell line harboring mutations in the APC and KRAS genes. LS174t is a human colorectal cell line harboring mutations in the CTNNB1 and KRAS genes.
The single agent efficacy of BCAT1 was evaluated at different dose levels in different colorectal cancer models. […] FIG. 2A. […] FIG. 2C. […] Without intending to be bound by any theory, it appears that the Wnt pathway may be reactivated when treatment is stopped.
We then evaluated the single agent Trametinib in LS411N tumor bearing mice at different dose levels (3, 1 and 0.3 mg/kg) and selected […] as the dose to be used in the combination study. FIG. 5A. For BCAT1, a dose of 0.1 mg/kg was selected from the previous single agent efficacy studies to be used in combination with Trametinib to treat LS411N tumors. […] FIG. 5B.

Ls174t liver metastases = assay: Survival in Ls174t CRC liver metastases model; format: in vivo, nude mice; details: for mice that died around day 48: 2 mg/kg or 2+2 mg/kg, start 3 weeks after implantation; for median survival: single agent 2 mg/kg, start 3 weeks after implantation of 2×10^6 cells
Description: (§3) Colorectal cancer (CRC) liver metastases models were generated by surgically implanting 1-2×10^6 cells in the spleen of nude mice after midline abdominal incision. After surgery, the abdominal incision was closed with 5-0 to 6-0 absorbable, nonbraided suture and the skin was closed with a single wound clip. Mice were anesthetized with isoflurane before initiating the surgery and during surgery. Buprenorphine was given preoperatively and post-operatively at 0.1 mg/kg subcutaneously for pain relief. Mice were held in a pathogen-free environment and all procedures involving animals were performed according to protocols approved by Dicerna Pharmaceuticals' Institutional Animal Care and Use Committee (Dicerna-IACUC).
We developed multiple CRC liver metastatic models by surgically implanting Ls174t and LS411N cells in spleen.
Before we evaluated the combination strategies in these CRC metastatic models, we ran a single agent Trametinib efficacy in the Ls174t liver metastatic model. Fewer number of Ls174t cells (1×10^6 cells) were implanted in the spleen this model to reduce the aggressiveness of the tumor progression. 18 days after the implantation, mice were randomly distributed into 3 groups and treated with PBS, Trametinib at 1 mg/kg or Trametinib at 3 mg/kg dose levels (qdx3, 3 cycles).
Next we ran a combination efficacy study in mice bearing Ls714t liver metastasis based on the doses used in the single agent efficacy studies. This time, the treatment was initiated 3 weeks after tumor implantation of 2×10^6 Ls174t cells. BCAT1, Placebo, and Trametinib were dosed at 2 mg/kg and the combination groups (Placebo+Trametinib or BCAT1+Trametinib) were dosed at 2+2 mg/kg.

SW403 tumors = assay: Tumor growth inhibition, subcutaneous SW403 colorectal tumors in nude mice; format: in vivo; details: for tumor growth inhibition: each agent alone, 0.3 mg/kg
Description: as §1, §2
The combination treatment was also evaluated in a third CRC model (SW403) that has APC and KRAS mutations. As described for the other two models, we first checked the single agent Trametinib efficacy at different dose levels in these tumors and picked 0.3 mg/kg as the optimal dose for the combination study (FIG. 5C). BCAT1 was administered at the same dose (0.3 mg/kg) and used in combination with Trametinib.
In these CRC models, tumors generally develop resistance to Trametinib over time. To investigate this resistance, SW403 tumors were continuously treated with Trametinib at 3 mg/kg doses (qdx3, 3 mg/kg×3) until the tumors stopped responding to the treatment. Once the tumors stopped responding and became resistant to Trametinib treatment, we treated the tumors with a combination of BCAT1 and Trametinib (qdx3, 3mpk+ qdx3, 3mpk) (around Day 42). […]

Hep3B tumors = assay: Tumor growth inhibition, mouse model bearing Hep3B tumors; format: in vivo; details: administered individually at 2 mg/kg
Description: as §1
Combination therapy with BCAT1 and a nucleic acid inhibitor molecule that targets the c-Myc gene (“MYC1”) was also evaluated. MYC1 has a 25 base pair passenger strand and a 27 base pair guide strand that form a duplex region consisting of 25 base pairs, where the 3′ end of the passenger strand and 5′ end of the guide strand form a blunt end, and the 3′ end of the guide strand consists of a single-stranded, two-base overhang. FIG. 9. The MYC1 construct was formulated in EnCore LNP.

RKO tumors = assay: Tumor growth inhibition, β-catenin/APC wild type RKO colorectal tumors; format: in vivo; details: qdx3, 3 mg/kg, 2 cycles
LS174t tumors = assay: Tumor growth inhibition, subcutaneous Ls174t colorectal tumors in nude mice; format: in vivo; details: qdx3, 3 mg/kg, 2 cycles
Description: as §1, §2
Combination therapy with BCAT1 and an MEK inhibitor (trametinib) was evaluated. Trametinib (99% purity) was dissolved in DMSO to make a clear solution of 5 mg/ml. […]

LS411N liver metastases = assay: Survival in LS411N CRC liver metastases model; format: in vivo, nude mice; details: qdx3, 3 mg/kg, 3 weeks
Description: as §3
We developed multiple CRC liver metastatic models by surgically implanting Ls174t and LS411N cells in spleen. 2-5 weeks after implanting 2×10^6 cells, the primary Ls174t tumors grown in the spleen spontaneously metastasized to the liver. To see if BCAT1 monotherapy will treat both primary and metastatic tumors and improve survival, 2 weeks after the tumor implantation, mice bearing Ls174t tumors were treated with BCAT1 or placebo at 3 mg/kg doses (qdx3, 3 mg/kg, 3 cycles). […] The […] survival time (“MST”) of the control-treated group is 31 days, whereas the MST of the BCAT1-treated group is 46 days).
Similarly, the mice with LS411N liver metastases were also treated with BCAT1 or controls (placebo or PBS) at the same dose levels for 3 weeks. Unlike the Ls174t tumors, LS411N tumors took a much longer time to metastasize to the liver after implanting 2×10^6 cells in the spleen. The treatment was initiated 18 days after the implantation of LS411N cells in the spleen. It took 112 days for all the control treated mice to die. […] It took about 6 months for all of the BCAT1-treated mice to die. In summary, BCAT treatment extended the survival of mice bearing LS411N liver metastasis by up to two-fold compared to the control treatment groups (MST of PBS/Placebo treatment groups is 99-102 days, whereas the MST of the BCAT1-treated group is 181 days).

[1] = system: multiple tumor types (xenograft, PDX, GEM tumors); assay: Delivery of LNP formulated BCAT1 nucleic acid payload to tumors in mouse models; format: in vivo
From the text: The BCAT1 construct was formulated in EnCore lipid nanoparticles (LNP).

[2] = start 18 days after implantation

CC(=O)Nc1cccc(-n2c(=O)n(C3CC3)c(=O)c3c(Nc4ccc(I)cc4F)n(C)c(=O)c(C)c32)c1 [Trametinib, trametinib]
growth inhibition (LS411N tumors): about 20%
mean survival time (MST) (Ls174t liver metastases; 1 mg/kg, qdx3, 3 cycles, 1×10^6 cells, start 18 days after implantation): 47 days
mice that died around day 48 (Ls174t liver metastases): 90%
mean survival time (MST) (Ls174t liver metastases; 3 mg/kg, qdx3, 3 cycles, 1×10^6 cells, start 18 days after implantation): 65 days
median survival (Ls174t liver metastases; qdx3, 3 cycles): 44 days
tumor growth inhibition (SW403 tumors): 40%

MYC1: nucleic acid inhibitor molecule targeting the c-Myc gene; sense strand SEQ ID NO:5, antisense strand SEQ ID NO:6 (sense AGCUUUUUUGCCCUGCGUGACCAGA; antisense UCUGGUCACGCAGGGCAAAAAAGCUCC; listed as RNA, chemistry not given here)
growth inhibition (Hep3B tumors): 40%

B1: BCAT1: nucleic acid inhibitor molecule targeting the β-catenin gene; sense strand SEQ ID NO:1, antisense strand SEQ ID NO:2 (nucleic acid)
sense: AGAAUACAAAUGAUGUAGAAACAGCC
antisense: UAGCUAUCGTGGCUGUUUCUACAUCAUUUGUAUUCUGC
modifications: chemistry not given here
tumor growth after therapy discontinued (LS411N tumors; qdX3, 3 mg/kg, discontinued after the second cycle): tumor growth resumed to a level roughly comparable to untreated subjects
tumor growth inhibition (LS411N tumors; qdx3, 0.3 mg/kg): 47%
tumor growth inhibition relative to vehicle-treated animals (LS411N tumors; qdx3, 1 mg/kg, two weekly dosing cycles, i.v.): 82%
tumor growth inhibition (LS411N tumors; qwx1, 3 mg/kg, weekly dosing): 60%
growth inhibition (LS411N tumors): about 20%
anti-tumor efficacy (RKO tumors): No efficacy
growth inhibition (Hep3B tumors): 47%
anti-tumor efficacy (LS174t tumors): Robust efficacy
extension of survival compared to control treatment groups (LS411N liver metastases): up to two-fold
time for all treated mice to die (LS411N liver metastases): about 6 months
mean survival time (MST) (LS411N liver metastases; [2]): 181 days
mice surviving at 112 days post-implant (LS411N liver metastases; [2]): 75%
mice that died around day 48 (Ls174t liver metastases): 90%
mean survival time (MST) (Ls174t liver metastases; qdx3, 3 mg/kg, 3 cycles, start 2 weeks after implantation of 2×10^6 cells): 46 days
median survival (Ls174t liver metastases; qdx3, 3 cycles): 45 days
delivery of BCAT1 to tumors ([1]; HCT116, DLD1, HL60): Negative: HCT116, DLD1, HL60
delivery of the nucleic acid payload to tumors ([1]; LNP formulated, tumor types of Table I (subcutaneous, orthotopic, disseminated, metastatic xenografts, PDX, GEM)): effectively delivered
tumor growth inhibition (SW403 tumors): 20%
anti-tumor efficacy (SW403 tumors; qdx3, 3 mg/kg, 2 cycles): Robust efficacy
